Experimental findings from publication PMC7418854 (Journal for Immunotherapy of Cancer, 2020) are described below.

The term Kd denotes the free concentration of one partner at which half of the binding sites on the other are occupied at equilibrium, for simple one-to-one binding.

Numbering of substitutions follows the chain as printed. Numbers in names are those of the source.

Test [1] addresses T1, recombinant LILRB1 (Homo sapiens, UniProt Q8NHL6). Description: BLI + ELISA.
In test [2] the target is T1, recombinant LILRB1. The experiment in a line: ELISA. (In an ELISA, binding on a coated surface is turned into a signal by an enzyme label.)
In test [3] the target is T1, recombinant LILRB1. The experiment in a line: BLI. In general terms: BLI is a label-free optical method that tracks binding on a fibre tip over time.

T1 sequence (Q8NHL6 24-461): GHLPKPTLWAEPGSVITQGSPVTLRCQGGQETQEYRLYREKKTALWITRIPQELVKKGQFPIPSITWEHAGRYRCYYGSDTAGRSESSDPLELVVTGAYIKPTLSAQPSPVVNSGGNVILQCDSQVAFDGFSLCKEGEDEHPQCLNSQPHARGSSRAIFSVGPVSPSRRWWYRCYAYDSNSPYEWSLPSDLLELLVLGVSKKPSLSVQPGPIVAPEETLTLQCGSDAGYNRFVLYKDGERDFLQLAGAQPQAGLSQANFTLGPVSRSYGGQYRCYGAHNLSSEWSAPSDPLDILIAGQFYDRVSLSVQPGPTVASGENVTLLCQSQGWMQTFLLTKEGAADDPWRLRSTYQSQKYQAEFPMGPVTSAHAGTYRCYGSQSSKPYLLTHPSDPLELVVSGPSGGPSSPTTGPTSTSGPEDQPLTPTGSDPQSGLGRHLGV

B1: humanized anti-LILRB1 antibody Hu B1-176-N297A (antibody, V domains shown)
VH: EVQLVESGGGLVQPGGSLRLSCAASGFSFSSSYCMCWVRQAPGKGLELVSCIYTDSSGATYYASWAKGRFTISRHNSKNTLYLQMNSLRAEDTAVYYCARGWDYEDPGYTDTTYFSLWGRGTLVTVSS
VL: DIQLTQSPSFLSASVGDRVTITCQASQTIYTNLAWYQQKPGKAPKLLIYAASTLASGVPSRFSGSGSGTEFTLTISSLQPEDFATYYCQSYYGSSTTGNGFGGGTKVEIK
For the molecule B1, the binding result in the test with recombinant LILRB1 [1] is listed as “binds”.

B2: humanized anti-LILRB1 antibody Hu B1-176-LALAPG (antibody, V domains shown)
VH: B1 VH
VL: B1 VL
As for B2, the binding result with recombinant LILRB1 [1] was “binds”.

B3: humanized B1-176 with heavy chain Hu-176 VH-2 (W48L), as tested in Figure 3B (antibody, V domains shown)
VH: B1 VH
VL: B1 VL
Regarding B3, in the test with recombinant LILRB1 [2], the binding result is listed as “binds”.

B4: humanized B1-176 with heavy chain Hu-176 VH-1 and light chain Hu-176 VL (antibody, V domains shown)
VH: B1 VH with L48W
VL: B1 VL
With B4, in the test with recombinant LILRB1 [2], the binding result is “binds”.

B5: rabbit anti-LILRB1 monoclonal antibody B1-176 (antibody, V domains shown)
VH: QSLEESEGGLVKPGGTLTLTCTASGFSFSSSYCMCWVRQAPGKGLELIACIYTDSSGATYYASWAKGRFTISKSSSTTITLQMTSLTAADTATYFCARGWDYEDPGYTDTTYFSLWGPGTLVTVSS
VL: ELDLTQTPSSVEAAVGGTVTIKCQASQTIYTNLAWYQQKPGQPPNLLIYAASTLASGVSSRFKGSGSGTEFTLTISDLECADAATYYCQSYYGSSTTGNGFGGGTEVEIK
For the molecule B5, in the test with recombinant LILRB1 [3], the Kd was roughly 0.01 nM.
